This assay has as its target GNL3, endogenous (UniProt Q9BVP2). The assay is described as follows: PLA (α-Flag + α-GNL3). The settings on record: U2OS cells, 2 h, read off a plot.

These results are taken from paper PMC13598120.

Chain of GNL3, endogenous (Q9BVP2 whole entry): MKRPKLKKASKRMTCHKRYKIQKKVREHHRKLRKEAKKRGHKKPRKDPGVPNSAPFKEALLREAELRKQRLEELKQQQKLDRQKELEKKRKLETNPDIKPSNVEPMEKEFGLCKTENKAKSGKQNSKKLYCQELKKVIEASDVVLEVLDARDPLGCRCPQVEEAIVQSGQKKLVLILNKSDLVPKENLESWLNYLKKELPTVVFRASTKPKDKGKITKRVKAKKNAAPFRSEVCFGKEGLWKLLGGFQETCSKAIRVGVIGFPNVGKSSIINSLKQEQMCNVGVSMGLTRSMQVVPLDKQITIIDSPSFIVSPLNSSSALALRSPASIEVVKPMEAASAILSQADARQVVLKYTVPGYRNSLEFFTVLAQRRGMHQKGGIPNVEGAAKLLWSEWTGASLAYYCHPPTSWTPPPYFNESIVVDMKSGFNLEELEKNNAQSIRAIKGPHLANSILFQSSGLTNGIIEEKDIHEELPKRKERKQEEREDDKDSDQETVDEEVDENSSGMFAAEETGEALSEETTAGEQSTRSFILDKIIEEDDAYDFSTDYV

As to “Flag-BLM, wild type (from UniProt P54132) SIMdm (both SIMs, 217QIDL220 and 235VICI238, mutated; substitutions not printed)”, the response (PLA dots per cell) (20 μM ETO, parent: est. 54) turned out to be 28 and the response (PLA dots per cell) (DMSO (control), parent: est. 16) was found to be 11.
